Laboratory results taken from PMC6914384 (Nature, 2018).
No end group written: not given here.

What follows are substances tested against T1, p300 BRP (Homo sapiens, UniProt Q09472) (assay: ITC of histone and AIL peptides with p300 BRP). Conditions: p300 BRP module, Kd cell prints --.
T1 sequence (Q09472 1048-1282): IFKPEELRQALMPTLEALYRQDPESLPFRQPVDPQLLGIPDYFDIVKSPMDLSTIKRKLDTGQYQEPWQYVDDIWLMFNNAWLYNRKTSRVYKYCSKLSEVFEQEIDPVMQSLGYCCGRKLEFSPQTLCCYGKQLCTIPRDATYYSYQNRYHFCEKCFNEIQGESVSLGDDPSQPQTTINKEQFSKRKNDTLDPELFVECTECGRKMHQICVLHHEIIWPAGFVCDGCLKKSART
Format: binding

Row | Substance | Binding by ITC, result in words (printed in column N)
1 | AIL K1549K1558K1560tri-ac (1545-1562): p300 autoinhibitory loop peptide 1545-1562 acetylated on K1549, K1558, K1560 (SKNAK(Ac)KKNNKKTSK(Ac)NK(Ac)SS) | No binding
2 | ARTKQTQRKSTGGKAPRKQL [H3 unmodified (1-20)] | No binding
3 | H3 K4me1 (1-20): histone H3 peptide 1-20, K4me1 | No binding
4 | H3 K4me3 (1-20): histone H3 peptide 1-20, K4me3 | No binding
5 | H3 K9ac (1-20): histone H3 peptide 1-20, K9ac | No binding
6 | H3 S10pho (1-20): histone H3 peptide 1-20, S10 phosphorylated | No binding
7 | H3T11pho (1-20): histone H3 peptide 1-20, T11 phosphorylated | No binding
8 | H4 K5ac (4-24): histone H4 peptide 4-24, K5ac | No binding
9 | H4 K16ac (4-24): histone H4 peptide 4-24, K16ac | No binding
10 | SKNAKKKNNKKTSKNKSS [AIL (1545-1562)] | No binding

Same assay, conditions: p300 BRP module, mean and s.d. of experiments in triplicate

Row | Substance | Kd (μM)
11 | H3 K18ac (1-20): histone H3 peptide 1-20, K18ac | large
